We go through one substance from publication PMC12299903 (Pharmaceuticals, 2025).

One series is described as follows: Zeta potential. It counts as physicochemical. Conditions: 0.2 mg·mL^−1 in 10 mM Tris-HCl, pH 8.0, 100 mM NaCl; 25 °C; mean of triplicate ± SD. The protocol:
Zeta potential and Hydrodynamic Diameter measurements were performed at room temperature (or 25 °C) on a Zetasizer Nano instrument (Malvern® ZS model BI-900, Worcestershire, UK). A 700 µL Malvern® cuvette (model DTS1061) was used for the analysis. The measurements were conducted, utilizing monochromatic light scattering (10 mW Ne laser, λ = 632.4 nm), with the light intensity measured at a 90° angle. Zeta potential (z) were carried out at 0.2 mg·mL^−1 of NP, NP-OH, NP-NH2, NP-Lun-EN, and NP-Lun-EC dispersed in a 10 mM Tris-HCl buffer, pH 8.0, containing 100 mM NaCl.

The next series relates to trypsin. Nature of the series: Proteolytic degradation by trypsin (HPLC). It counts as in vitro ADME. Conditions: trypsin 1:50 (w/w), 100 µM peptide, 20 mM Tris-HCl pH 8.0, 37 °C, HPLC-UV of filtered supernatant; time points 1 min to 4 h. The protocol:
Lunatin–AAAE and EAAA–lunatin and their nanoparticle-functionalized counterparts (NP-Lun-EN and NP-Lun-EC) were suspended in 20 mM Tris-HCl buffer (pH 8.0) at a final peptide concentration of 100 µM and exposed to enzymatic digestion with trypsin at 37 °C, using an enzyme-to-substrate ratio of 1:50 (w/w) in a final volume of 1000 µL. Incubation was performed using an AccuBlock™ Digital Dry Bath (Ciencor),. Aliquots of 200 µL were withdrawn at different time points (1 min, 5 min, 10 min, 30 min, 1 h, 2 h, 3 h, and 4 h), and enzymatic activity was quenched by adding 40 µL of 1 M HCl. Samples were centrifugated and supernatant filtered in whatman® alumina anodisc filter discs 0.02 μm pore size, previously injected in a high-performance liquid chromatography system (Varian® ProStar 315 system equipped with a UV detector), using an Agilent AdvanceBio Peptide Mapping column (4.6 × 150 mm), and 50 µL injection loop.

Regarding NP-NtermEAAA-Lun-1 [NP-Lun-EN], in “Zeta potential”, the ζ-potential result is given as “+6.7 ± 0.9 mV”. Besides, the “time after which progressive degradation (cleavage fragment peaks) is observed with trypsin” value with trypsin was 2 h.
